Patent WO2010029497A1 (dated 2010)
Changes are numbered by the printed parent chain. Names and notes keep the numbering of the source.

Assays:
[1] = target: T1, human NGF (human, UniProt P01138 122-241); experiment: SPR (BIAcore 3000), human NGF immobilised on CM5 chip, Fab injected
[2] = target: T1, human NGF; experiment: SPR (BIAcore), 100 RU human NGF on CM5 chip, Fab injected 2 min, 1800 s dissociation
[3] = target: T1, human NGF; experiment: cell-based or functional assay
[4] = target: NT3; experiment: cell-based or functional assay
Chain of NT3 (P20783 139-257): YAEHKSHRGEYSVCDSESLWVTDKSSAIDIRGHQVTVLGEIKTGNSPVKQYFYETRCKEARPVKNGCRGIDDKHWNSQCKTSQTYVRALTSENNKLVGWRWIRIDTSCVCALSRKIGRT

[5] = target: T1, human NGF; experiment: SPR (BIAcore 3000), human NGF immobilised on CM5 chip
[6] = target: T1, human NGF; experiment: summary sentence of the binding properties (BIAcore); its table is not reproduced in this copy
[7] = target: rat NGF (rat, UniProt P25427 122-241); experiment: cell-based or functional assay
Chain of rat NGF (P25427 122-241 limits assumed): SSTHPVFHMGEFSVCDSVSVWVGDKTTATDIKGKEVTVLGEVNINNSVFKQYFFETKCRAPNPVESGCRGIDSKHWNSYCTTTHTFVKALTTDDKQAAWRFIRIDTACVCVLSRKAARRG

[8] = target: T1, human NGF; experiment: SPR (BIAcore), human NGF immobilised on CM5 chip
[9] = target: T1, human NGF; experiment: SPR (BIAcore) screening assay, human NGF on chip, Fab from small culture lysates

T1 sequence (P01138 122-241 limits assumed): as the sequence (P25427 122-241 limits assumed) above, with T3S, V6I, M9R, T37M, A60D, E65D, T92M, D94G, A117V, G120A counted along it

Fab fragment of mouse anti-NGF monoclonal antibody 911
Kd [1]: 10 nM
Kd [2]: 3.7 nM
koff [2]: 8.4e-05 s⁻¹
kon [2]: 22000 M⁻¹ s⁻¹
concentration that totally blocked NGF-elicited survival of trigeminal neurons [3]: 20 nM

antibody E3 (full antibody)
inhibition of survival of trigeminal neurons promoted by NT3 [4]: > 200 nM

B1: 8L2-4D5 (CDR-grafted antibody, the template) (Fab, V domains shown)
VH: QVQLQESGPGLVKPSETLSLTCTVSGFSLIGYDINWIRQPPGKGLEWIGMIWGDGTTDYNSALKSRVTISVDTSKNQFSLKLSSVTAADTAVYYCARGGYYYGTSYYFDYWGQGTLVTVS
VL: DIQMTQSPSSLSASVGDRVTITCRASQDISNHLNWYQQKPGKAPKLLIYYISRFHSGVPSRFSGSGSGTDFTFTISSLQPEDIATYYCQQSKTLPYTFGQGTKLEIKR
notes: expressed in E. coli with human kappa constant domain (GenBank CAA09181) and CH1 of human IgG2a (P01859)
Kd [5]: ~38 nM

B2: Fab E3 (Fab, V domains shown)
VH: B1 VH with I34L, M50I, L63V, V71K, Y101W, G103A
VL: B1 VL with D28S, H32N, I51T, S91E, K92H
notes: Fab made in HEK293 cells, purified on Ni-NTA; also called 3E; Fab 3E
Kd [2]: ~0.07 nM
koff [2]: ~4.2e-05 s⁻¹
kon [2]: ~600000 M⁻¹ s⁻¹
fold higher binding affinity than parent mouse antibody 911 [6]: ~50 fold
IC50, inhibition of rat NGF-dependent survival of mouse E13.5 trigeminal neurons, 1.5 pM rat NGF [7]: ~1.3 pM
IC50, inhibition of rat NGF-dependent survival of mouse E13.5 trigeminal neurons, 15 pM rat NGF [7]: ~31.6 pM
IC50, inhibition of human NGF-dependent survival of mouse E13.5 trigeminal neurons, 1.5 pM human NGF [3]: ~1.2 pM
IC50, inhibition of human NGF-dependent survival of mouse E13.5 trigeminal neurons, 15 pM human NGF [3]: ~21 pM

B3: H19-L129 (Fab, V domains shown)
VH: B1 VH with I34L, M50I, L63V, V71K
VL: B1 VL with D28S, H32N, I51T
notes: carries I34L, M50I, L63V (heavy) and D28S, H32N, I51T (light) with the grafted H3 and L3 CDRs, so it is E3 without Y101W, G103A, S91E, K92H; Fab with human CH1 (IgG2a) and kappa constant domains; also called Fab H19-L129; combined clone H19-L129
Kd [8]: ~1 nM

B4: Fab 3C (Fab, V domains shown)
VH: B1 VH with I34L, M50I, L63V, V71K, Y101W, G103A
VL: B1 VL with D28S, H32N, I51T, S91E, K92R
notes: Fab from HEK293 cells
Kd [2]: ~0.35 nM

B5: 8L2-6D5 (CDR-grafted antibody with the framework mutation V71K) (Fab, V domains shown)
VH: B1 VH with V71K
VL: B1 VL
notes: Fab with human CH1 (IgG2a) and kappa constant domains, his tag at the C terminus of the heavy chain; also called clone 8L2-6D5; Fab 8L2-6D5
Kd [1]: ~15 nM
koff [9]: 0.001 s⁻¹
